Laboratory results taken from patent US20230111363A1.
Substitutions are numbered along the chain they refer to.

B1: anti-human MCT1 antibody Ab1 (antibody, human IgG1, kappa, V domains shown)
VH: QVQLVQSGAEVKKPGASVKVSCTVSGFSLTNYHLQWVRQAPGQGLEWMGFIRSSGNTEYNSEFKSRVTMTRDTSTSTVYMELSSLRSEDTAVYYCARNSWYHGTYYSPGYYVMDAWGQGTLVTVSS
VL: EIVLTQSPGTLSLSPGERATLSCKGSQNINNYLAWYQQKPGQAPRLLIYNRHNLQTGIPDRFSGSGSGTDFTLTISRLEPEDFAVYYCYQYSDGYTFGGGTKVEIKR
B2: anti-human MCT1 antibody Ab12 (antibody, human IgG1, kappa, V domains shown)
VH: B1 VH with F27R, Q35V, S99R
VL: B1 VL with N30E
B3: anti-human MCT1 antibody Ab10 (antibody, human IgG1, kappa, V domains shown)
VH: B1 VH with F27R, N31G, S99R
VL: B1 VL with N30E
B4: anti-human MCT1 antibody Ab16 (antibody, human IgG1, kappa, V domains shown)
VH: B1 VH with V24R, F27R, S99R
VL: B1 VL with N30E
B5: anti-human MCT1 antibody Ab18 (antibody, human IgG1, kappa, V domains shown)
VH: B1 VH with F27R, Q35G, S99R
VL: B1 VL with N30E
B6: anti-human MCT1 antibody Ab14 (antibody, human IgG1, kappa, V domains shown)
VH: B1 VH with F27R, S99R, A115P
VL: B1 VL with N30E
B7: anti-human MCT1 antibody Ab11 (antibody, human IgG1, kappa, V domains shown)
VH: B1 VH with F27R, S99R, Y101H
VL: B1 VL with N30E
B8: anti-human MCT1 antibody Ab7 (antibody, human IgG1, kappa, V domains shown)
VH: B1 VH with F27R, L29R, S99R
VL: B1 VL with N30E
B9: anti-human MCT1 antibody Ab8 (antibody, human IgG1, kappa, V domains shown)
VH: B1 VH with F27R, E58I, S99R
VL: B1 VL with N30E
B10: anti-human MCT1 antibody Ab17 (antibody, human IgG1, kappa, V domains shown)
VH: B1 VH with F27R, Y32I, S99R
VL: B1 VL with N30E
B11: anti-human MCT1 antibody Ab15 (antibody, human IgG1, kappa, V domains shown)
VH: B1 VH with F27R, S99L
VL: B1 VL with N30E
B12: anti-human MCT1 antibody Ab9 (antibody, human IgG1, kappa, V domains shown)
VH: B1 VH with F27R, L34I, S99R
VL: B1 VL with N30E
B13: anti-human MCT1 antibody Ab13 (antibody, human IgG1, kappa, V domains shown)
VH: B1 VH with F27R, S99R, Y101R
VL: B1 VL with N30E
B14: anti-human MCT1 antibody Ab19 (antibody, human IgG1, kappa, V domains shown)
VH: B1 VH with F27R, S53R, S99R
VL: B1 VL with N30E

How the values were obtained:
[1] = target: human serum polyclonal antibodies; test: cross-interaction chromatography (CIC), IgG column against blank column
[2] = target: human serum polyclonal antibodies; test: cross-interaction chromatography (CIC), column with human serum polyclonal IgG

Binder	IgG K' (column retention time ratio) [1]	IgG column RT [2] [min]	IgG column peak width [2] [min]
B1	0.05	5.07	1.5
B2	0.07	5.29	1.46
B3	0.06	5.27	1.44
B4	0.08	5.4	1.89
B5	0.08	5.35	1.64
B6	0.07	5.29	1.51
B7	0.06	5.33	1.57
B8	0.08	5.38	1.79
B9	0.07	5.34	1.55
B10	0.05	5.19	1.36
B11	0.09	5.27	1.55
B12	0.07	5.28	1.46
B13	0.07	5.33	1.63
B14	0.08	5.41	1.94
